According to patent publication US20260207767A1 (ANAVEON, published 2026):

T1: IL-2R CD122-CD132 on Jurkat-PD1+CD122+ cells (UniProt P14784 27-551; P31785 23-369)
T1 sequence (looked up) 1: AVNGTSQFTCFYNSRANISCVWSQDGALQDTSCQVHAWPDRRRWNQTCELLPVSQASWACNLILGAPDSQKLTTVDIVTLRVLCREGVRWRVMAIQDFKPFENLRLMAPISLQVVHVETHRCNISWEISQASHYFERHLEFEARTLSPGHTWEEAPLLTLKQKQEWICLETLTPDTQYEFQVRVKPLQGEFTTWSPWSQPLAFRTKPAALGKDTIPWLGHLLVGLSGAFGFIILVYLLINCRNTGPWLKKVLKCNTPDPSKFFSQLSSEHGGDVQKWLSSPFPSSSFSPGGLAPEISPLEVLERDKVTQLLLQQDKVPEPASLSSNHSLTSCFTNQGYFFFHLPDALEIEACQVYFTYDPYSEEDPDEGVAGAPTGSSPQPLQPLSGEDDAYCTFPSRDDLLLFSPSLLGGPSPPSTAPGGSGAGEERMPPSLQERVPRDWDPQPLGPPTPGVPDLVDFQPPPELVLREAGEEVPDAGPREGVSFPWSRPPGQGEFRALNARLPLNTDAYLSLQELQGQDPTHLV
T1 sequence (looked up) 2: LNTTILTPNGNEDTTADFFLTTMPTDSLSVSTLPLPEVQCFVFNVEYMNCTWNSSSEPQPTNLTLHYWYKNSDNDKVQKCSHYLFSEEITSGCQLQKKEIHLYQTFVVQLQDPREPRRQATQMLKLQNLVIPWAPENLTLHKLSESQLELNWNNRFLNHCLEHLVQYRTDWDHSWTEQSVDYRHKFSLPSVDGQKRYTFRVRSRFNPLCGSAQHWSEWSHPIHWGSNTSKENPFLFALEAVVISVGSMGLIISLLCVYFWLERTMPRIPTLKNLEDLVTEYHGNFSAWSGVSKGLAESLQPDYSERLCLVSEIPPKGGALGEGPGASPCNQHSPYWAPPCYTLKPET


target: T1, IL-2R CD122-CD132 on Jurkat-PD1+CD122+ …; assay: cell-based or functional assay

EC50 value for pSTAT5 induction, Jurkat-PD-1+CD122+ cells | Binder
70 pM | QAB373 (bispecific antibody, human IgG1, kappa, L234A L235A) heavy 1: QVQLVQSGAEVKKPGASVKVSCKASGYTFTNFYIHWVRQAPGQGLEWMGSIYPNYGITAYNQKFKDRVTMTVDTSTSTAYMELRSLRSDDTAVYYCARGYSYAMDYWGQGTTVTVSSASVAAPSVFIFPPSDEQLKSGTASVVCLLNNFYPREAKVQWKVDNALQSGNSQESVTEQDSKDSTYSLSSTLTLSKADYEKHKVYACEVTHQGLSSPVTKSFNRGECDKTHTCPPCPAPEAAGGPSVFLFPPKPKDTLMISRTPEVTCVVVDVSHEDPEVKFNWYVDGVEVHNAKTKPREEQYNSTYRVVSVLTVLHQDWLNGKEYKCKVSNKALAAPIEKTISKAKGQPREPQVYTLPPSREEMTKNQVSLTCLVKGFYPSDIAVEWESNGQPENNYKTTPPVLDSDGSFFLTSKLTVDKSRWQQGNVFSCSVMHEALHNHYTQKSLSLSPGK light 1: DIQMTQSPSSVSASVGDRVTITCSASQGISGDLNWYQQKPGKAPKLLIYHTSQLHSDVPSRFSGSGSGTDFTLTISSLQPEDFATYYCQGYSKDLLTFGGGTKLEIKSSASTKGPSVFPLAPSSKSTSGGTAALGCLVKDYFPEPVTVSWNSGALTSGVHTFPAVLQSSGLYSLSSVVTVPSSSLGTQTYICNVNHKPSNTKVDKRVEPKSC heavy 2: EVQLVQSGAEVKKPGESLKISCKGSGYAFTNYLIEWVRQMPGKGLEWMGVINPGSGGTNYNEKFKGQVTISADKSISTAYLQWSSLKASDTAMYYCARWRGEGYYAYFDVWGQGTTVTVSSASTKGPSVFPLAPSSKSTSGGTAALGCLVKDYFPEPVTVSWNSGALTSGVHTFPAVLQSSGLYSLSSVVTVPSSSLGTQTYICNVNHKPSNTKVDKRVEPKSCDKTHTCPPCPAPEAAGGPSVFLFPPKPKDTLMISRTPEVTCVVVDVSHEDPEVKFNWYVDGVEVHNAKTKPREEQYNSTYRVVSVLTVLHQDWLNGKEYKCKVSNKALAAPIEKTISKAKGQPREPQVYTLPPSREEMTKNQVSLYCLVKGFYPSDIAVEWESNGQPENNYKTTPPVLDSDGSFFLYSKLTVDKSRWQQGNVFSCSVMHEALHNHYTQKSLSLSPGK light 2: not shown
60 pM | MDS446 (bispecific antibody, human IgG1, kappa, L234A L235A) heavy 1: QVQLVQSGAEVKKPGASVKVSCKASGYTFTNFYIHWVRQAPGQGLEWMGSIYPNYGITAYNQKFKDRVTMTVDTSTSTAYMELRSLRSDDTAVYYCARGYSYAMDYWGQGTTVTVSSASTKGPSVFPLAPSSKSTSGGTAALGCLVKDYFPEPVTVSWNSGALTSGVHTFPAVLQSSGLYSLSSVVTVPSSSLGTQTYICNVNHKPSNTKVDKRVEPKSCDKTHTCPPCPAPEAAGGPSVFLFPPKPKDTLMISRTPEVTCVVVDVSHEDPEVKFNWYVDGVEVHNAKTKPREEQYNSTYRVVSVLTVLHQDWLNGKEYKCKVSNKALAAPIEKTISKAKGQPREPQVYTLPPSREEMTKNQVSLTCLVKGFYPSDIAVEWESNGQPENNYKTTPPVLDSDGSFFLTSKLTVDKSRWQQGNVFSCSVMHEALHNHYTQKSLSLSPGK light: DIQMTQSPSSVSASVGDRVTITCSASQGISGDLNWYQQKPGKAPKLLIYHTSQLHSDVPSRFSGSGSGTDFTLTISSLQPEDFATYYCQGYSKDLLTFGGGTKLEIKRTVAAPSVFIFPPSDEQLKSGTASVVCLLNNFYPREAKVQWKVDNALQSGNSQESVTEQDSKDSTYSLSSTLTLSKADYEKHKVYACEVTHQGLSSPVTKSFNRGEC heavy 2: AIRLTQSPSSFSASTGDRVTITCKASQSVDYGGGNFHLRPRDLISNINVIVLELKGSETTFMCEYADETATIVEFLNRWITFSQSIISTLTPTSSSTKKTQLQLEHLLLDLQMILNGINNYKNPKLTRMLTFKFYMPKKATELKHLQCLEEELKPLEEVLNLAQSKGGGGDSYMNWYQQKPGKAPKLLIYAASNLESGVPSRFSGSGSGTDFTLTISSLQSEDFATYYCQQSNEDPYTFGGGTKVEIKGGGGSGGGGSGGGGSEVQLVQSGAEVKKPGESLKISCKGSGYAFTNYLIEWVRQMPGKGLEWMGVINPGSGGTNYNEKFKGQVTISADKSISTAYLQWSSLKASDTAMYYCARWRGEGYYAYFDVWGQGTTVTVSSGGGGSGGGGSQVQLVQSGAEVKKPGASVKVSCKASGYTFTNFYIHWVRQAPGQGLEWMGSIYPNYGITAYNQKFKDRVTMTVDTSTSTAYMELRSLRSDDTAVYYCARGYSYAMDYWGQGTTVTVSSASTKGPSVFPLAPSSKSTSGGTAALGCLVKDYFPEPVTVSWNSGALTSGVHTFPAVLQSSGLYSLSSVVTVPSSSLGTQTYICNVNHKPSNTKVDKRVEPKSCDKTHTCPPCPAPEAAGGPSVFLFPPKPKDTLMISRTPEVTCVVVDVSHEDPEVKFNWYVDGVEVHNAKTKPREEQYNSTYRVVSVLTVLHQDWLNGKEYKCKVSNKALAAPIEKTISKAKGQPREPQVYTLPPSREEMTKNQVSLYCLVKGFYPSDIAVEWESNGQPENNYKTTPPVLDSDGSFFLYSKLTVDKSRWQQGNVFSCSVMHEALHNHYTQKSLSLSPGK
60 pM | TMU471 (bispecific antibody, human IgG1, kappa, L234A L235A) heavy 1: QVQLVQSGAEVKKPGASVKVSCKASGYTFTNFYIHWVRQAPGQGLEWMGRIYPNYGITAYNQKFKDRVTMTVDTSTSTAYMELRSLRSDDTAVYYCARGYSYAMDYWGQGTTVTVSSASTKGPSVFPLAPSSKSTSGGTAALGCLVKDYFPEPVTVSWNSGALTSGVHTFPAVLQSSGLYSLSSVVTVPSSSLGTQTYICNVNHKPSNTKVDKRVEPKSCDKTHTCPPCPAPEAAGGPSVFLFPPKPKDTLMISRTPEVTCVVVDVSHEDPEVKFNWYVDGVEVHNAKTKPREEQYNSTYRVVSVLTVLHQDWLNGKEYKCKVSNKALAAPIEKTISKAKGQPREPQVYTLPPSREEMTKNQVSLTCLVKGFYPSDIAVEWESNGQPENNYKTTPPVLDSDGSFFLTSKLTVDKSRWQQGNVFSCSVMHEALHNHYTQKSLSLSPGK light: DIQMTQSPSSVSASVGDRVTITCSASQGISGDLNWYQQKPGKAPKLLIYHTSQRHSDVPSRFSGSGSGTDFTLTISSLQPEDFATYYCQGYSKDLLTFGGGTKLEIKRTVAAPSVFIFPPSDEQLKSGTASVVCLLNNFYPREAKVQWKVDNALQSGNSQESVTEQDSKDSTYSLSSTLTLSKADYEKHKVYACEVTHQGLSSPVTKSFNRGEC heavy 2: AIRLTQSPSSFSASTGDRVTITCKASQSVDYGGGNFHLRPRDLISNINVIVLELKGSETTFMCEYADETATIVEFLNRWITFSQSIISTLTPTSSSTKKTQLQLEHLLLDLQMILNGINNYKNPKLTRMLTFKFYMPKKATELKHLQCLEEELKPLEEVLNLAQSKGGGGDSYMNWYQQKPGKAPKLLIYAASNLESGVPSRFSGSGSGTDFTLTISSLQSEDFATYYCQQSNEDPYTFGGGTKVEIKGGGGSGGGGSGGGGSEVQLVQSGAEVKKPGESLKISCKGSGYAFTNYLIEWVRQMPGKGLEWMGVINPGSGGTNYNEKFKGQVTISADKSISTAYLQWSSLKASDTAMYYCARWRGEGYYAYFDVWGQGTTVTVSSGGGGSGGGGSQVQLVQSGAEVKKPGASVKVSCKASGYTFTNFYIHWVRQAPGQGLEWMGRIYPNYGITAYNQKFKDRVTMTVDTSTSTAYMELRSLRSDDTAVYYCARGYSYAMDYWGQGTTVTVSSASTKGPSVFPLAPSSKSTSGGTAALGCLVKDYFPEPVTVSWNSGALTSGVHTFPAVLQSSGLYSLSSVVTVPSSSLGTQTYICNVNHKPSNTKVDKRVEPKSCDKTHTCPPCPAPEAAGGPSVFLFPPKPKDTLMISRTPEVTCVVVDVSHEDPEVKFNWYVDGVEVHNAKTKPREEQYNSTYRVVSVLTVLHQDWLNGKEYKCKVSNKALAAPIEKTISKAKGQPREPQVYTLPPSREEMTKNQVSLYCLVKGFYPSDIAVEWESNGQPENNYKTTPPVLDSDGSFFLYSKLTVDKSRWQQGNVFSCSVMHEALHNHYTQKSLSLSPGK
